Data reported in US20240261333A1 (published 2024).

Assays:
Test in all cases: co-IP, anti-FLAG, lysate of cells with C-FLAG B3GNT2; mass spectrometry
C1orf68 = molecular target: T1, C1orf68 (human, UniProt Q5T750 1-250)
T1 construct: also called NP_001019850.1
Method: (§1) Cells were plated in 10-cm cell culture dishes and grown to 60-80% confluency. For each condition, two biological replicates were harvested for co-IP. Cells were washed with PBS and 4 mL of lysis buffer (20 mM HEPES, 1% Triton X-100, 150 mM NaCl, 1 mM EDTA, and 10% glycerol) containing protease inhibitor cocktail was added. Cells were scraped and lysate was incubated at 4° C. under rotary agitation for 1 h. Lysate was centrifuged at 14,000×g for 10 min at 4° C. Supernatant was transferred to a new tube and an aliquot was taken as the input. […] For Western blots, 10 μg/mL Chicken Anti-FLAG (Aves labs ET-DY100) and IgY control (R&D Systems AB-101-C) antibodies were biotinylated (Thermo Fisher Scientific 90407) and added to the respective conditions. Lysates with antibodies were incubated at 4° C. under rotary agitation overnight. For each mL of lysate, 50 μL of Pierce Protein A/G Magnetic Beads (Mass spectrometry; Thermo Fisher Scientific 88803) or Pierce Streptavidin Magnetic Beads (Western blot; Thermo Fisher Scientific 88817) was washed twice with lysis buffer. Lysates with antibodies were added to the beads and incubated at 4° C. under rotary agitation for 4 h. Beads were washed with lysis buffer 3 times and resuspended in lysis buffer for storage.
(§2) Magnetic beads were resuspended in 100 mM Tris pH 7.8, reduced, alkylated and digested with trypsin at 37° ° C. overnight. This solution was subjected to solid phase extraction to concentrate the peptides and remove unwanted reagents followed by injection onto a Shimadzu HPLC with fraction collector. Eight fractions were collected and after concentration were injected on a Waters NanoAcquity HPLC equipped with a self-packed Aeris 3 μm C18 analytical column 0.075 mm by 20 cm, (Phenomenex). Peptides were eluted using standard reverse-phase gradients. The effluent from the column was analyzed using a Thermo Orbitrap Elite mass spectrometer (nanospray configuration) operated in a data dependent manner for 54 minutes. The resulting fragmentation spectra were correlated against the known database using Proteome Discover 1.4 (Thermo Fisher Scientific).

HNRNPK = molecular target: T2, HNRNPK (human, UniProt P61978-3 1-440, limits assumed)
T2 construct: also called NP_001305115.1 (+1)
Method: as §1, §2

UBAP2L = molecular target: T3, UBAP2L (human, UniProt Q14157 1-1087)
T3 construct: also called NP_055662.3 (+3)
T3 sequence (looked up): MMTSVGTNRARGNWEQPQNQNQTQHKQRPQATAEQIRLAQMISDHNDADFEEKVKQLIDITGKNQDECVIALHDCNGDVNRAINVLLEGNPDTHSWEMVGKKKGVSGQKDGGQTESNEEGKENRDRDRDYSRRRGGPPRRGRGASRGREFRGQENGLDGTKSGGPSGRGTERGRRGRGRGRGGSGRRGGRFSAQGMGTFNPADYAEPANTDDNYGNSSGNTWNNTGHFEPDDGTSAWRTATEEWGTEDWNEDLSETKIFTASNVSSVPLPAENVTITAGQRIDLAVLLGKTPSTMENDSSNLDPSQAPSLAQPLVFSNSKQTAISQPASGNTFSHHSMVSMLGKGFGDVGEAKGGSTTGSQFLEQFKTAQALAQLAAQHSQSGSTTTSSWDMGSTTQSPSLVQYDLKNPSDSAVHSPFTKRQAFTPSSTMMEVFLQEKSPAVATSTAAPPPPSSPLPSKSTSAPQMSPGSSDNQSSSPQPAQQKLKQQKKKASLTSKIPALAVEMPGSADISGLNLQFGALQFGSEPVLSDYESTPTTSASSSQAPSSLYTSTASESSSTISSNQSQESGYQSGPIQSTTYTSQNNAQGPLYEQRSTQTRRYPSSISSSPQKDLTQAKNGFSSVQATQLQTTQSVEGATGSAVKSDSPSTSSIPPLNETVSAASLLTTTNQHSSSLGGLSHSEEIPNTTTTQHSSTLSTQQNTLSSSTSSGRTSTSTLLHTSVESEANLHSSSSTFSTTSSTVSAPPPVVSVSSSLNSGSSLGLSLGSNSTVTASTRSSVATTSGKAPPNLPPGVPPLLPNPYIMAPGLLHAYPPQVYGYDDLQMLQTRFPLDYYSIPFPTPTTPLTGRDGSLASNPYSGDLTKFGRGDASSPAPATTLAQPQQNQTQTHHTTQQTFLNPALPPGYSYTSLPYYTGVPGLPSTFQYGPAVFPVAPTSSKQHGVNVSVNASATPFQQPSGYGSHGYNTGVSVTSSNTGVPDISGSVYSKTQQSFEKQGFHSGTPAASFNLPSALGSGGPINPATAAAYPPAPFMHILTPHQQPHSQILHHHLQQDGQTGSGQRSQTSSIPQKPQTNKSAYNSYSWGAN
Method: as §1, §2

HUWE1 = molecular target: T4, HUWE1 (human, UniProt Q7Z6Z7 1-4374)
T4 construct: also called NP_113584.3 (+11)
Method: as §1, §2

ATXN2 = molecular target: T5, ATXN2 (human, UniProt Q99700 1-1313)
T5 construct: also called NP_002964.3
Method: as §1, §2

LMNA = molecular target: T6, LMNA (human, UniProt P02545 1-646, limits assumed)
T6 construct: also called NP_733821.1
T6 sequence (looked up): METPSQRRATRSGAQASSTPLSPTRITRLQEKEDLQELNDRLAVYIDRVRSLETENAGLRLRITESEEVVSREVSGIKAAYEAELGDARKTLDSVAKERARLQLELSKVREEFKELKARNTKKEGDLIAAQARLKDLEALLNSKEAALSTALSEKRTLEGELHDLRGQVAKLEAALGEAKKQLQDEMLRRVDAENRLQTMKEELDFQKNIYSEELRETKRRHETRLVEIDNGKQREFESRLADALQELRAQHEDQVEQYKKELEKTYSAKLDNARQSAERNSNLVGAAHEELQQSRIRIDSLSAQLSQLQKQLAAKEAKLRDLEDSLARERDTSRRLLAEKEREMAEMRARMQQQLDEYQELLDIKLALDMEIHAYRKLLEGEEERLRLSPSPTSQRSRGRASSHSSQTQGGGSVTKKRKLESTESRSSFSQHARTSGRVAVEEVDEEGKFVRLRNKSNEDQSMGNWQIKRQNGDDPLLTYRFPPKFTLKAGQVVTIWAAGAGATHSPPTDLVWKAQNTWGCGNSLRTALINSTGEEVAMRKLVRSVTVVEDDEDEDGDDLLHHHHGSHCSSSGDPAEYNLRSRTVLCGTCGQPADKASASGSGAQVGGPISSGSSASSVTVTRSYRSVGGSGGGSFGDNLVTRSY
Method: as §1, §2

T4 sequence (Q7Z6Z7 whole entry): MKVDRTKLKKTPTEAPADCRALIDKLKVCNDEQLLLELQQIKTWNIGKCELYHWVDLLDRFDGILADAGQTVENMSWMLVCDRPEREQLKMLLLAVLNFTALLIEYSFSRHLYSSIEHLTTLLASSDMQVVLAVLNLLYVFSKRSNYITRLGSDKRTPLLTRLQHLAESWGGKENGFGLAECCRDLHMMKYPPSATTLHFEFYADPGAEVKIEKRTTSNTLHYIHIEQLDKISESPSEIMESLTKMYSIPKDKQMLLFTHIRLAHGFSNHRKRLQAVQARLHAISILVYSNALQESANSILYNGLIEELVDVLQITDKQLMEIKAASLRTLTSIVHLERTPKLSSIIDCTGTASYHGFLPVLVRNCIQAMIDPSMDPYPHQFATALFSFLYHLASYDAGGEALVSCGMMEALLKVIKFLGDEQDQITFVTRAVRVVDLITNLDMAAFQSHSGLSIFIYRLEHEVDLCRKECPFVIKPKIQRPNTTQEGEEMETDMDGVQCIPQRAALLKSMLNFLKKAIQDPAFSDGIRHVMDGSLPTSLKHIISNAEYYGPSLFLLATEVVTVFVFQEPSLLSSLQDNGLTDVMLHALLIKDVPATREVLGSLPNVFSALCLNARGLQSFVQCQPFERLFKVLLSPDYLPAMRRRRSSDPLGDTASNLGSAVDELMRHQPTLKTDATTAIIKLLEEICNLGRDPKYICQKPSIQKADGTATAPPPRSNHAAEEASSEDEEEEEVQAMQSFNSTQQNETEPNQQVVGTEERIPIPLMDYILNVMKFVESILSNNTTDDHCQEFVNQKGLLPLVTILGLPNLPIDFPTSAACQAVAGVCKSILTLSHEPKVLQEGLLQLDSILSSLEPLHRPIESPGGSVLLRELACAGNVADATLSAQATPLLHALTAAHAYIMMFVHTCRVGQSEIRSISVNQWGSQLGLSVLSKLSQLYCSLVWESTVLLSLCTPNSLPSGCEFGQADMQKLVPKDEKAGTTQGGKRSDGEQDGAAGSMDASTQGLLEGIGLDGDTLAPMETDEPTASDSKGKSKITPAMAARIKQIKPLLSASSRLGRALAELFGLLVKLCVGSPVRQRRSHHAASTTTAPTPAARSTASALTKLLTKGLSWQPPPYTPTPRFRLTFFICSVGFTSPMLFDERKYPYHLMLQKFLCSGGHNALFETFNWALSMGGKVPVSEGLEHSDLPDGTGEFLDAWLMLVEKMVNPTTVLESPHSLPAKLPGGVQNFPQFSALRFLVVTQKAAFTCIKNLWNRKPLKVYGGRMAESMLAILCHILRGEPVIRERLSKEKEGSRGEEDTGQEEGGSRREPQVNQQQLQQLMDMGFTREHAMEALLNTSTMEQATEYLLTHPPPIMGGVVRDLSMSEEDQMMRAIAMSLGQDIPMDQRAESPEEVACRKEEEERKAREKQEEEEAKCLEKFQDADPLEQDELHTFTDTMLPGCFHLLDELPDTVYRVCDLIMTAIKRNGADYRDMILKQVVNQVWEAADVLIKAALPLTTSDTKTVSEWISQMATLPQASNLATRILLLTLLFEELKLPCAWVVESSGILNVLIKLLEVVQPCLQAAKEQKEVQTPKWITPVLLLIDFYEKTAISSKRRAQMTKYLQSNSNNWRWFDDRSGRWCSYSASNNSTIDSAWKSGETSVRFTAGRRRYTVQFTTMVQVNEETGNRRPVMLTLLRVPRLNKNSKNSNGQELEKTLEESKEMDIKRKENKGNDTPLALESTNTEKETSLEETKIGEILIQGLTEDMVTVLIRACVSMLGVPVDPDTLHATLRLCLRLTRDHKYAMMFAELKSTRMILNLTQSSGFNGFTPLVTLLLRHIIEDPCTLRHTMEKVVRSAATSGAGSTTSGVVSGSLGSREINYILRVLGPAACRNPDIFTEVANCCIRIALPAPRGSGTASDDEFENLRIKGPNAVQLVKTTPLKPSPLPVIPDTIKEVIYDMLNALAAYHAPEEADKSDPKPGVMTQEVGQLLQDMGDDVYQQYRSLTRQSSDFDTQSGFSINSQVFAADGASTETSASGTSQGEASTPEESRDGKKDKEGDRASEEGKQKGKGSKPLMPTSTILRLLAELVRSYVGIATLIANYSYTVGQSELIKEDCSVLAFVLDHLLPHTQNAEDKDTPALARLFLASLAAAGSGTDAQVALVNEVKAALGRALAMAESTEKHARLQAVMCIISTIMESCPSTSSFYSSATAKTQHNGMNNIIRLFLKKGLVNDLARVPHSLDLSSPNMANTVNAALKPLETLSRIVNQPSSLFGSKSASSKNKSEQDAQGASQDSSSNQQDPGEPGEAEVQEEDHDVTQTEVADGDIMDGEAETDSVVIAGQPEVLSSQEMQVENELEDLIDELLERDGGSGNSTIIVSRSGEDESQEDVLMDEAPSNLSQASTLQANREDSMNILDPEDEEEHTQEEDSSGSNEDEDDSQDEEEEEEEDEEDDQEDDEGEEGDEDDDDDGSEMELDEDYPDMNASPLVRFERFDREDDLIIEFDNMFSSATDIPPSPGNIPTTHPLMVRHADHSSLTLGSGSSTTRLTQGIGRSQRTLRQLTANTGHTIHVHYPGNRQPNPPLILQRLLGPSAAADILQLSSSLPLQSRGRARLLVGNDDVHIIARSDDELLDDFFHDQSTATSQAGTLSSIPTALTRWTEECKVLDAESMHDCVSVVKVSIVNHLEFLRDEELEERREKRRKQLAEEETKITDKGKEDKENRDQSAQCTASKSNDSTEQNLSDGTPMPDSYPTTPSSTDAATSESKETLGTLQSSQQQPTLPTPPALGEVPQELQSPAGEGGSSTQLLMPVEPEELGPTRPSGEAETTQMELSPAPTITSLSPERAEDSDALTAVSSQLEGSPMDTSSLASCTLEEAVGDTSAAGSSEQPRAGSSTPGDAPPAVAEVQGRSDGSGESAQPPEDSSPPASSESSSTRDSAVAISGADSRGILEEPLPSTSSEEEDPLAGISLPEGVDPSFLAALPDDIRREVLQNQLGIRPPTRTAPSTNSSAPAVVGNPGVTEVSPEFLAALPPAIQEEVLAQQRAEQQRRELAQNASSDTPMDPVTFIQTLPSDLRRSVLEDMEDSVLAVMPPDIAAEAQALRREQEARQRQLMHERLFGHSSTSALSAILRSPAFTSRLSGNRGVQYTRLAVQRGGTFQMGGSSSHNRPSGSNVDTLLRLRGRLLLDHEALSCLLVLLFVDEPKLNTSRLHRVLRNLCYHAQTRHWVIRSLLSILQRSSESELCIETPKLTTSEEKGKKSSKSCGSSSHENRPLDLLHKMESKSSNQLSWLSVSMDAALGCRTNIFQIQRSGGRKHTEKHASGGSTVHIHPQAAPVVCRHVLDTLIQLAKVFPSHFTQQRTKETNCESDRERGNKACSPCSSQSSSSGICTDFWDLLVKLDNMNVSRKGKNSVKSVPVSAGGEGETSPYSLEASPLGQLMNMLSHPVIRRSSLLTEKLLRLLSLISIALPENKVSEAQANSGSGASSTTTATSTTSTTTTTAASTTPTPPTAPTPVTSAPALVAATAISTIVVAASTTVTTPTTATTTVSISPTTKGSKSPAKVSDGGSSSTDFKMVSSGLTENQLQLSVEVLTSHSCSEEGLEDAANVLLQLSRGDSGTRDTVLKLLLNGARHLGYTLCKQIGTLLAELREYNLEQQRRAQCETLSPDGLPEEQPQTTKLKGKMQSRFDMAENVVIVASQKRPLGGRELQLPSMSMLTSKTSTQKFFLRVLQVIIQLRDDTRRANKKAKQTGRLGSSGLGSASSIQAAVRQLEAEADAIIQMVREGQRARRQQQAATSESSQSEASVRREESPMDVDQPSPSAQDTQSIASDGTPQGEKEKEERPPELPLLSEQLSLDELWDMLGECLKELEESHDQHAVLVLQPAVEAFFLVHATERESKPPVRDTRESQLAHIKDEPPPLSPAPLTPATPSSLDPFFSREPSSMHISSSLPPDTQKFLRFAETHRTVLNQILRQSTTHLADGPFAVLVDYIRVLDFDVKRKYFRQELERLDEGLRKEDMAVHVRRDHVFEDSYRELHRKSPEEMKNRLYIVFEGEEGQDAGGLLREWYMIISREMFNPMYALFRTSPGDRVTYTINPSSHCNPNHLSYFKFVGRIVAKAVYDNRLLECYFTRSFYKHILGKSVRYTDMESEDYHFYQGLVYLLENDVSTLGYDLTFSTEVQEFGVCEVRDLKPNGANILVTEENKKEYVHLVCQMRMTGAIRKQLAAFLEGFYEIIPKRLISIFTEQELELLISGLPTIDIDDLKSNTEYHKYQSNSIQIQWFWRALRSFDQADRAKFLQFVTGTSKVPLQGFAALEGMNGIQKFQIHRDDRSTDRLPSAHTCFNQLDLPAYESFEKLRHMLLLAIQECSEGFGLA
T1 sequence (Q5T750 whole entry): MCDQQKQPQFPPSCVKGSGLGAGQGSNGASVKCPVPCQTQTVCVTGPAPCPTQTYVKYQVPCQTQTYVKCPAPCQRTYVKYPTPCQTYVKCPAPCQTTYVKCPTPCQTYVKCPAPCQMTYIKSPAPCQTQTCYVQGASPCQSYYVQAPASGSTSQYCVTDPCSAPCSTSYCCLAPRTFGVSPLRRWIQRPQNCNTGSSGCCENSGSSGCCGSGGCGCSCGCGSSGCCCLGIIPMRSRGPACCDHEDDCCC
T2 sequence (P61978 other isoform, or with tags, fused parts or gaps limits assumed): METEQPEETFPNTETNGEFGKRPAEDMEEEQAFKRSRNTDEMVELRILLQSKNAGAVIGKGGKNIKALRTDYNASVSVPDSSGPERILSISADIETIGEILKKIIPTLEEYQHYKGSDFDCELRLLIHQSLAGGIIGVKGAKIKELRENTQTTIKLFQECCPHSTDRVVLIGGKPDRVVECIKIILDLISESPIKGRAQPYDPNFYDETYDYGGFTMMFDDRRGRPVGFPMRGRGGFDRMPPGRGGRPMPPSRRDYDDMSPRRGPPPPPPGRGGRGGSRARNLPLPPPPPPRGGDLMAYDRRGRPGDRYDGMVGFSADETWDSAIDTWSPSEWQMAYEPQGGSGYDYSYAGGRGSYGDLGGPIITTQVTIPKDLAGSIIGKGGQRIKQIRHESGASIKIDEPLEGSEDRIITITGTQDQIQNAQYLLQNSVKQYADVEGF

co-IP mass spectrometry count (C1orf68): 2
co-IP mass spectrometry count (HNRNPK): 12
co-IP mass spectrometry count (UBAP2L): 19
co-IP mass spectrometry count (HUWE1): 0
co-IP mass spectrometry count (ATXN2): 3
co-IP mass spectrometry count (LMNA): 22
B1: C-terminal FLAG tagged B3GNT2 (enzyme, human, UniProt Q9NY97 1-397, looked up)
chain: MSVGRRRIKLLGILMMANVFIYFIMEVSKSSSQEKNGKGEVIIPKEKFWKISTPPEAYWNREQEKLNRQYNPILSMLTNQTGEAGRLSNISHLNYCEPDLRVTSVVTGFNNLPDRFKDFLLYLRCRNYSLLIDQPDKCAKKPFLLLAIKSLTPHFARRQAIRESWGQESNAGNQTVVRVFLLGQTPPEDNHPDLSDMLKFESEKHQDILMWNYRDTFFNLSLKEVLFLRWVSTSCPDTEFVFKGDDDVFVNTHHILNYLNSLSKTKAKDLFIGDVIHNAGPHRDKKLKYYIPEVVYSGLYPPYAGGGGFLYSGHLALRLYHITDQVHLYPIDDVYTGMCLQKLGLVPEKHKGFRTFDIEEKNKNNICSYVDLMLVHSRKPQEMIDIWSQLQSAHLKC
notes: Overexpressed in cells and pulled down from the lysate with mouse anti-FLAG antibody; also called C-FLAG B3GNT2; C-term flag; not shown: C-terminal FLAG tag
